# *1 amine or outer side, *2 acyl side, *3 side chain or, on linkers, in order; H or OH if unused. [ ]: non-standard residue; d: D form. 3AzaPhe4AcPip = (S)-3-(6-(4-acetylpiperazin-1-yl)pyridin-3-yl)-2-aminopropanoic acid, CC(=O)N1CCN(c2ccc(C[C@H](N[*:1])C(=O)[*:2])cn2)CC1; Pro(trans-4-NH2) = O=C([C@@H]1C[C@@H](N[*:3])CN1[*:1])[*:2]; Bip(4'-COOH) = N[C@@H](Cc1ccc(-c2ccc(C(=O)O)cc2)cc1)C(=O)O; 1Nal(3S-Me) = C[C@@H](c1cccc2ccccc12)[C@H](N)C(=O)O; Ala(pyrimidin-5-yl) = N[C@@H](Cc1cncnc1)C(=O)O; Phe(4-COOH) = N[C@@H](Cc1ccc(C(=O)O)cc1)C(=O)O; h3Pal(5-CN) = N#Cc1cncc(CC[C@H](N)C(=O)O)c1; 1Nal = N[C@@H](Cc1cccc2ccccc12)C(=O)O; Ala(4-THP) = N[C@@H](CC1CCOCC1)C(=O)O; hTyr = N[C@@H](CCc1ccc(O)cc1)C(=O)O; 4Pal = N[C@@H](Cc1ccncc1)C(=O)O; Orn = NCCC[C@H](N)C(=O)O; dNMeA = CN[C@H](C)C(=O)O; Dap = NC[C@H](N)C(=O)O; Aib = CC(C)(N)C(=O)O
# Target: Recombinant human IL-1β (BioLegend 579404) (human, UniProt P01584 117-269)
# Assay: cell-based or functional assay
row,Binder,MRC5 IC50
1,cyclo([Bip(4'-COOH)]W[Phe(4-COOH)]G[Pro(trans-4-NH2)][1Nal(3S-Me)]D[dNMeA]G[Bip(4'-COOH)][1Nal][Dap][Aib][h3Pal(5-CN)]) (SMILES C[C@@H]1C(=O)NCC(=O)N[C@@H](Cc2ccc(-c3ccc(C(=O)O)cc3)cc2)C(=O)N[C@@H](Cc2cccc3ccccc23)C(=O)N[C@@H](CN)C(=O)NC(C)(C)C(=O)N[C@@H](CCc2cncc(C#N)c2)C(=O)N[C@@H](Cc2ccc(-c3ccc(C(=O)O)cc3)cc2)C(=O)N[C@@H](Cc2c[nH]c3ccccc23)C(=O)N[C@@H](Cc2ccc(C(=O)O)cc2)C(=O)NCC(=O)N2C[C@H](N)C[C@H]2C(=O)N[C@@H]([C@@H](C)c2cccc3ccccc23)C(=O)N[C@@H](CC(=O)O)C(=O)N1C) [SEQ ID NO: 18],0.0885 nM
2,cyclo([3AzaPhe4AcPip]W[Phe(4-COOH)]G[Pro(trans-4-NH2)][1Nal(3S-Me)]D[dNMeA]G[Bip(4'-COOH)]KL[dA][h3Pal(5-CN)]) (SMILES CC(=O)N1CCN(c2ccc(C[C@@H]3NC(=O)[C@H](CCc4cncc(C#N)c4)NC(=O)[C@@H](C)NC(=O)[C@H](CC(C)C)NC(=O)[C@H](CCCCN)NC(=O)[C@H](Cc4ccc(-c5ccc(C(=O)O)cc5)cc4)NC(=O)CNC(=O)[C@@H](C)N(C)C(=O)[C@H](CC(=O)O)NC(=O)[C@H]([C@@H](C)c4cccc5ccccc45)NC(=O)[C@@H]4C[C@@H](N)CN4C(=O)CNC(=O)[C@H](Cc4ccc(C(=O)O)cc4)NC(=O)[C@H](Cc4c[nH]c5ccccc45)NC3=O)cn2)CC1) [SEQ ID NO: 2],0.0217 nM
3,cyclo([Bip(4'-COOH)]W[Phe(4-COOH)]G[Pro(trans-4-NH2)][1Nal(3S-Me)]D[dNMeA]G[Bip(4'-COOH)][4Pal][Dap][dA][hTyr]) (SMILES C[C@@H]1C(=O)NCC(=O)N[C@@H](Cc2ccc(-c3ccc(C(=O)O)cc3)cc2)C(=O)N[C@@H](Cc2ccncc2)C(=O)N[C@@H](CN)C(=O)N[C@H](C)C(=O)N[C@@H](CCc2ccc(O)cc2)C(=O)N[C@@H](Cc2ccc(-c3ccc(C(=O)O)cc3)cc2)C(=O)N[C@@H](Cc2c[nH]c3ccccc23)C(=O)N[C@@H](Cc2ccc(C(=O)O)cc2)C(=O)NCC(=O)N2C[C@H](N)C[C@H]2C(=O)N[C@@H]([C@@H](C)c2cccc3ccccc23)C(=O)N[C@@H](CC(=O)O)C(=O)N1C) [SEQ ID NO: 22],0.0325 nM
4,cyclo([Bip(4'-COOH)]W[Phe(4-COOH)]G[Pro(trans-4-NH2)][1Nal(3S-Me)]D[dNMeA]G[Bip(4'-COOH)][4Pal][Dap][dA][h3Pal(5-CN)]) (SMILES C[C@@H]1C(=O)NCC(=O)N[C@@H](Cc2ccc(-c3ccc(C(=O)O)cc3)cc2)C(=O)N[C@@H](Cc2ccncc2)C(=O)N[C@@H](CN)C(=O)N[C@H](C)C(=O)N[C@@H](CCc2cncc(C#N)c2)C(=O)N[C@@H](Cc2ccc(-c3ccc(C(=O)O)cc3)cc2)C(=O)N[C@@H](Cc2c[nH]c3ccccc23)C(=O)N[C@@H](Cc2ccc(C(=O)O)cc2)C(=O)NCC(=O)N2C[C@H](N)C[C@H]2C(=O)N[C@@H]([C@@H](C)c2cccc3ccccc23)C(=O)N[C@@H](CC(=O)O)C(=O)N1C) [SEQ ID NO: 21],0.0234 nM
5,cyclo([Bip(4'-COOH)]W[Phe(4-COOH)]G[Pro(trans-4-NH2)][1Nal(3S-Me)]D[dNMeA]G[Bip(4'-COOH)][1Nal]L[Aib]G) (SMILES CC(C)C[C@@H]1NC(=O)[C@H](Cc2cccc3ccccc23)NC(=O)[C@H](Cc2ccc(-c3ccc(C(=O)O)cc3)cc2)NC(=O)CNC(=O)[C@@H](C)N(C)C(=O)[C@H](CC(=O)O)NC(=O)[C@H]([C@@H](C)c2cccc3ccccc23)NC(=O)[C@@H]2C[C@@H](N)CN2C(=O)CNC(=O)[C@H](Cc2ccc(C(=O)O)cc2)NC(=O)[C@H](Cc2c[nH]c3ccccc23)NC(=O)[C@H](Cc2ccc(-c3ccc(C(=O)O)cc3)cc2)NC(=O)CNC(=O)C(C)(C)NC1=O) [SEQ ID NO: 19],0.118 nM
6,cyclo([Bip(4'-COOH)]W[Phe(4-COOH)]G[Pro(trans-4-NH2)][1Nal(3S-Me)]D[dNMeA]G[Bip(4'-COOH)][1Nal][Orn][Aib]G) (SMILES C[C@@H]1C(=O)NCC(=O)N[C@@H](Cc2ccc(-c3ccc(C(=O)O)cc3)cc2)C(=O)N[C@@H](Cc2cccc3ccccc23)C(=O)N[C@@H](CCCN)C(=O)NC(C)(C)C(=O)NCC(=O)N[C@@H](Cc2ccc(-c3ccc(C(=O)O)cc3)cc2)C(=O)N[C@@H](Cc2c[nH]c3ccccc23)C(=O)N[C@@H](Cc2ccc(C(=O)O)cc2)C(=O)NCC(=O)N2C[C@H](N)C[C@H]2C(=O)N[C@@H]([C@@H](C)c2cccc3ccccc23)C(=O)N[C@@H](CC(=O)O)C(=O)N1C) [SEQ ID NO: 20],0.44 nM
7,cyclo([Bip(4'-COOH)]W[Phe(4-COOH)]G[Pro(trans-4-NH2)][1Nal(3S-Me)]D[dNMeA]G[Bip(4'-COOH)][1Nal][Dap][Aib]G) (SMILES C[C@@H]1C(=O)NCC(=O)N[C@@H](Cc2ccc(-c3ccc(C(=O)O)cc3)cc2)C(=O)N[C@@H](Cc2cccc3ccccc23)C(=O)N[C@@H](CN)C(=O)NC(C)(C)C(=O)NCC(=O)N[C@@H](Cc2ccc(-c3ccc(C(=O)O)cc3)cc2)C(=O)N[C@@H](Cc2c[nH]c3ccccc23)C(=O)N[C@@H](Cc2ccc(C(=O)O)cc2)C(=O)NCC(=O)N2C[C@H](N)C[C@H]2C(=O)N[C@@H]([C@@H](C)c2cccc3ccccc23)C(=O)N[C@@H](CC(=O)O)C(=O)N1C) [SEQ ID NO: 17],0.222 nM

# Second part, the binder after the results:
row,MRC5 IC50,Binder
1,0.017 nM,cyclo([Bip(4'-COOH)]W[Phe(4-COOH)]G[Pro(trans-4-NH2)][1Nal(3S-Me)]D[dNMeA]G[Bip(4'-COOH)][Ala(pyrimidin-5-yl)][Dap][dA][h3Pal(5-CN)]) (SMILES C[C@@H]1C(=O)NCC(=O)N[C@@H](Cc2ccc(-c3ccc(C(=O)O)cc3)cc2)C(=O)N[C@@H](Cc2cncnc2)C(=O)N[C@@H](CN)C(=O)N[C@H](C)C(=O)N[C@@H](CCc2cncc(C#N)c2)C(=O)N[C@@H](Cc2ccc(-c3ccc(C(=O)O)cc3)cc2)C(=O)N[C@@H](Cc2c[nH]c3ccccc23)C(=O)N[C@@H](Cc2ccc(C(=O)O)cc2)C(=O)NCC(=O)N2C[C@H](N)C[C@H]2C(=O)N[C@@H]([C@@H](C)c2cccc3ccccc23)C(=O)N[C@@H](CC(=O)O)C(=O)N1C) [SEQ ID NO: 27]
2,0.0112 nM,cyclo([Bip(4'-COOH)]W[Phe(4-COOH)]G[Pro(trans-4-NH2)][1Nal(3S-Me)]D[dNMeA]G[Bip(4'-COOH)][Ala(4-THP)][Dap][dA][h3Pal(5-CN)]) (SMILES C[C@@H]1C(=O)NCC(=O)N[C@@H](Cc2ccc(-c3ccc(C(=O)O)cc3)cc2)C(=O)N[C@@H](CC2CCOCC2)C(=O)N[C@@H](CN)C(=O)N[C@H](C)C(=O)N[C@@H](CCc2cncc(C#N)c2)C(=O)N[C@@H](Cc2ccc(-c3ccc(C(=O)O)cc3)cc2)C(=O)N[C@@H](Cc2c[nH]c3ccccc23)C(=O)N[C@@H](Cc2ccc(C(=O)O)cc2)C(=O)NCC(=O)N2C[C@H](N)C[C@H]2C(=O)N[C@@H]([C@@H](C)c2cccc3ccccc23)C(=O)N[C@@H](CC(=O)O)C(=O)N1C) [SEQ ID NO: 23]
3,0.0542 nM,cyclo([Bip(4'-COOH)]W[Phe(4-COOH)]G[Pro(trans-4-NH2)][1Nal(3S-Me)]D[dNMeA]G[Bip(4'-COOH)]KL[dA][hTyr]) (SMILES CC(C)C[C@@H]1NC(=O)[C@H](CCCCN)NC(=O)[C@H](Cc2ccc(-c3ccc(C(=O)O)cc3)cc2)NC(=O)CNC(=O)[C@@H](C)N(C)C(=O)[C@H](CC(=O)O)NC(=O)[C@H]([C@@H](C)c2cccc3ccccc23)NC(=O)[C@@H]2C[C@@H](N)CN2C(=O)CNC(=O)[C@H](Cc2ccc(C(=O)O)cc2)NC(=O)[C@H](Cc2c[nH]c3ccccc23)NC(=O)[C@H](Cc2ccc(-c3ccc(C(=O)O)cc3)cc2)NC(=O)[C@H](CCc2ccc(O)cc2)NC(=O)[C@@H](C)NC1=O) [SEQ ID NO: 25]
4,0.0291 nM,cyclo([Bip(4'-COOH)]W[Phe(4-COOH)]G[Pro(trans-4-NH2)][1Nal(3S-Me)]D[dNMeA]G[Bip(4'-COOH)][Ala(4-THP)][Dap][dA][hTyr]) (SMILES C[C@@H]1C(=O)NCC(=O)N[C@@H](Cc2ccc(-c3ccc(C(=O)O)cc3)cc2)C(=O)N[C@@H](CC2CCOCC2)C(=O)N[C@@H](CN)C(=O)N[C@H](C)C(=O)N[C@@H](CCc2ccc(O)cc2)C(=O)N[C@@H](Cc2ccc(-c3ccc(C(=O)O)cc3)cc2)C(=O)N[C@@H](Cc2c[nH]c3ccccc23)C(=O)N[C@@H](Cc2ccc(C(=O)O)cc2)C(=O)NCC(=O)N2C[C@H](N)C[C@H]2C(=O)N[C@@H]([C@@H](C)c2cccc3ccccc23)C(=O)N[C@@H](CC(=O)O)C(=O)N1C) [SEQ ID NO: 24]
5,0.0688 nM,cyclo([Bip(4'-COOH)]W[Phe(4-COOH)]G[Pro(trans-4-NH2)][1Nal(3S-Me)]D[dNMeA]G[Bip(4'-COOH)]KL[dS][hTyr]) (SMILES CC(C)C[C@@H]1NC(=O)[C@H](CCCCN)NC(=O)[C@H](Cc2ccc(-c3ccc(C(=O)O)cc3)cc2)NC(=O)CNC(=O)[C@@H](C)N(C)C(=O)[C@H](CC(=O)O)NC(=O)[C@H]([C@@H](C)c2cccc3ccccc23)NC(=O)[C@@H]2C[C@@H](N)CN2C(=O)CNC(=O)[C@H](Cc2ccc(C(=O)O)cc2)NC(=O)[C@H](Cc2c[nH]c3ccccc23)NC(=O)[C@H](Cc2ccc(-c3ccc(C(=O)O)cc3)cc2)NC(=O)[C@H](CCc2ccc(O)cc2)NC(=O)[C@@H](CO)NC1=O) [SEQ ID NO: 26]

# From patent US20230406885A1, “CYCLIC PEPTIDES FOR TRAPPING INTERLEUKIN-1 BETA” (MERCK SHARP & DOHME LLC, priority 2022, published 2023)
